Common to all, as to assay: BLI heatmap
Assay [1] has as its target T1, VA peptide VAKLDEESILKQK (XAKLDEESILKQK, X = V).
T1 construct: Immobilized on the biolayer interferometry sensor
T1 peptide: VAKLDEESILKQK

The target of assay [2] is T2, IA peptide IAKLDEESILKQK (XAKLDEESILKQK, X = I).
T2 construct: Immobilized on the biolayer interferometry sensor
T2 peptide: IAKLDEESILKQK

Assay [3] has as its target T3, LA peptide LAKLDEESILKQK (XAKLDEESILKQK, X = L).
T3 construct: Immobilized on the biolayer interferometry sensor
T3 peptide: LAKLDEESILKQK

The target of assay [4] is T4, F peptide FAKLDEESILKQK (XAKLDEESILKQK, X = F).
T4 construct: Immobilized on the biolayer interferometry sensor
T4 peptide: FAKLDEESILKQK

Assay [5] addresses T1, VA peptide VAKLDEESILKQK ….
Assay [6] deals with T2, IA peptide IAKLDEESILKQK ….
Assay [7] deals with T5, W peptide WAKLDEESILKQK (XAKLDEESILKQK, X = W).
T5 construct: Immobilized on the biolayer interferometry sensor
T5 peptide: WAKLDEESILKQK

Assay [8] concerns the target T3, LA peptide LAKLDEESILKQK ….
Assay [9] concerns the target T4, F peptide FAKLDEESILKQK (XAKLDEESILKQK, …).

Where two headings read alike, the source gives them in different places.

B1: PS576 (other)
chain: MASTQTPDLNEITEESTKSTGGPWRVVLWDDNEHTYEYVIEMLVEICMMTVEKAFLHAVQVDKEKRTVDFSGELEHAEHVQERILNYGADPRMSNSKGSMSATLER
With B1, the binding result in [1], in [2], in assay [3] and in assay [4] was “no binding” each time.

B2: PS568 (other)
chain: MTTPSLPTRETEVEERTEVEPERLYHLVLLDDDQHSYQYVIEMLASIFGYGSEKAWTLARIVDTEGRAILETASHAQCERHQSQIHAYGADSRIPTSVGSMSAVIEEAGTPPQT
As for B2, the binding result in assay [1], in [2] and in [3] was “binds” each time.

B3: PS388 (other)
chain: MVTTLSADVYGMATAPTVAPERSNQVVRKTYPNYKVIVLNDDFNTFQHVAECLMKYIPGMSSDRAWDLTNQVHYEGQAIVWVGPQEPAELYHQQLRRAGLTMAPLEAA
Regarding B3, the binding result was “no binding” in assay [5], “no binding” in assay [6], “no binding” in [7] and “binds” in assay [8].

B4: PS374 (other)
chain: MRWEDPLAAEPVTPGVAPVVEEETDAAVETPWRVILYDDDIHTFEEVILQLMKATGCTPEQGERHAWTVHTRGKDCVYQGDFFDCFRVQGVLREIQLVTEIEG
With B4, the binding result in assay [5] was “no binding”; in assay [6] it was “no binding”; in [7] it was “binds”; in assay [9], “binds”.

B5: PS554 (other)
chain: MSDSASATVEVQADPPADATARSQPTPARSTGSKPKRQPRYHVVLWNDDDHTYEYVIAMLRRLFGIEPEKGFRIAEEVDQSGRAVVLTTTREHAELKRDQIHAFGADRLLARSKGSMSASIEPEA
On to B5, for which the binding result in assay [1] is “binds”; in assay [2], “binds”; in [3], “binds”; in [4], “no binding”.

B6: PS569 (other)
chain: MYSKNQIKIYCSEDDKGQTATPLLEKKPKFAPLYHVILWDDNTHTYEYVIKLLMSLFRMTFEKAYQHTLEVDKKGRTICITTHLEKAELKQEQISNFGPDILMQNSKGPMSATIEPAN
With B6, the binding result in assay [1], in assay [2] and in assay [4] was “no binding” throughout.

B7: PS390 (other)
chain: MLSIAAVTEAPSKGVQTADPKTVRKPYPNYKVIVLNDDFNTFQHVSSCLLKYIPGMSEARAWELTNQVHFEGLAVVWVGPQEQAELYYAQLKNAGLTMAPPEPA
For the molecule B7, the binding result in [5] is reported as “no binding”; in assay [6], “no binding”; in assay [7], “no binding”; in assay [8] it was “binds”; in assay [9] it was “binds”.

B8: PS423 (other)
chain: MAPTPAGAAVLDKQQQRRHKHASRYRVLLHNDPVNTMEYVVESLRQVVPQLSEQDAIAVMVEAHNTGVGLVIVCDIEPAEFYCEQLKTKGLTSSIEPED
For the molecule B8, the binding result is “no binding” in assay [5]; “no binding” in assay [6]; “binds” in assay [7]; “no binding” in assay [8]; “binds” in assay [9].

B9: PS547 (other)
chain: MGFPTDFRQSIEISTPLGSQQPRFSNASSEPALADPVLVINPRIQPRYHVILLNDDDHTYRYVIEMMLIVFGHPPEKGFLIAKEVDKAGRAICLTTSLEHAEFKQEQVHAYGADPYFGPKCKGSMTAVLEPAE
B9: the binding result in [1] and in assay [4] was “no binding” each time.

B10: PS398 (other)
chain: MPLKAQNRSIVGRRDEWPPPTTQSSSETKSESKRVSDTGADTKRKTKTVPKVEKPRLYKVILVNDDYTPREFVLVVLKAVFRMSEDQGYKVMITAHQKGSCVVAVYTRDIAETKAKEAVDLAKEIGFPLMFRTEPEE
B10: the binding result in [5] is recorded as “no binding”; in assay [6], “no binding”; in assay [7], “binds”; in assay [8], “no binding”; in assay [9] it was “binds”.

B11: PS559 (other)
chain: MNQAAISPNPDIKPNPSTHKKRASQRQPRYHVILWNDNDHTYHYVVTMLQKLFGHPPRTGIKMATEVDKKGKVIVLTTSREHAELKRDQIHAFGADKLIRRSKGAMAASIEPES
For B11, the binding result in [1], in assay [2] and in [3] was “binds” each time.

B12: PS389 (other)
chain: MLNSAAFKAASASPVIAPERSGQVTQKPYPTYKVIVLNDDFNTFQHVHDCLVKYIPGMTSDRAWQLTHQVHNDGQAIVWVGPQEQAELYHQQLSRAGLTMAPIEAA
Take B12: the binding result in assay [5] is reported as “no binding”; in [6], “no binding”; in assay [7], “no binding”; in assay [8], “binds”.

B13: PS424 (other)
chain: MSVETIEKRSTTRKLAPQYRVLLHNDDYNSMEYVVQVLMTSVPSITQPQAVNIMMEAHNSGLALVITCAQEHAEFYCETLKGHGLSSTIEPD
B13: the binding result in [5] is “no binding”; in assay [6] it was “no binding”; in assay [7], “binds”; in [8] it was “no binding”; in assay [9], “binds”.

B14: PS414 (other)
chain: MQAAGNEPPDPQNPGDVGNGGDGGNQDGSNTGVVVKTRTRTRKPAMYKVLMLNDDYTPMEFVVHVLERFFQKNREEATRIMLHVHRRGVGVCGVYTYEVAETKVTQVMDLARQNQHPLQCTIEKE
With B14, the binding result in assay [5] is given as “no binding”; in assay [6], “no binding”; in assay [7] it was “binds”; in assay [9] it was “binds”.

B15: PS404 (other)
chain: MPVSVTAPQTKTKTKPKVERPKLYKVILVNDDFTPREFVVRVLKAEFRMSEDQAAKVMMTAHQRGVCVVAVFTRDVAETKATRATDAGRAKGYPLLFTTEPEE
Turning to B15, the binding result in [5] is on record as “no binding”; in assay [6], “no binding”; in assay [7], “binds”; in assay [8] it was “no binding”; in assay [9], “binds”.

B16: PS553 (other)
chain: MPASASAVTEPPVSLPEAAAPRPKDRPKRQPRYHVILWNDDDHTYQYVVAMLRQLFGHPPEKGFTLAKQVDKDGRVVVLTTTKEHAELKRDQIHAFGADRLLARSKGSMSASIEPEASTG
Regarding B16, the binding result in assay [1] was “binds”; in [2] it was “binds”; in [3] it was “binds”; in assay [4] it was “no binding”.

B17: PS397 (other)
chain: MSDNEVAPKRKTRVKPKLERPRLYKVILVNDDYTPRDFVVMVLKAIFRMSEEAGYRVMMTAHKLGTSVVVVCARDIAETKAKEATDLGKEAGFPLMFTTEPEE
For the molecule B17, the binding result is given as “no binding” in assay [5]; “no binding” in assay [6]; “binds” in assay [7]; “no binding” in assay [8]; “binds” in [9].

B18: PS571 (other)
chain: MTSSGASQPSILEETERKPRLSDGPWKVVLWDDDFHTYEYVIEMLMDVCQMPWEKAFQHAVEVDTRKKTIVFFGELEHAEFVHERILNYGPDPRMGTSKGSMTATLEK
Take B18: the binding result in assay [1] is reported as “binds”; in assay [2], “binds”; in assay [3], “binds”; in assay [4], “no binding”.

B19: PS555 (other)
chain: MADSAQTGVAEPIQETLRRRKLRDDRRPKRQPPYHVILWNDNDHTYAYVVVMLMQLFGYPAEKGYQLASEVDTQGRAVVLTTTKEHAELKRDQIHAYGKDGLIEKCKGSMWATIEPAPGE
On to B19, for which the binding result was “no binding” in assay [1], “binds” in assay [2] and “binds” in [3].

B20: PS392 (other)
chain: MSVEIIEKRSTVRKLAPRYRVLLHNDDFNPMEYVVQTLMATVPSLTQPQAVNVMMEAHTNGMGLVIVCALEHAEFYAETLNNHGLGSSIEPDD
Consider B20, for which the binding result in assay [5] was “no binding”; in assay [6], “no binding”; in assay [8], “no binding”; in assay [9], “binds”.

For the origin of these results see patent US20210364527A1 (QUANTUM SI, published 2021).
